# In patent US20160122389A1 (PHARIS BIOTEC, published 2016):
# No end group written: not given here.
# B1: peptide of SEQ ID NO 16 (408-423) (peptide)
# peptide: LVRYTKKVPQVSTPTL
# notes: Chemically synthesized fragment of human serum albumin (HSA)
# B2: 408-422 (peptide)
# peptide: LVRYTKKVPQVSTPT
# B3: 408I-419 K414C (peptide)
# peptide: IVRYTKCVPQVS
# B4: 408-415 (peptide)
# peptide: LVRYTKKV
# B5: 408I-418 SC x2 (peptide)
# peptide: IVRYSKKVPQC
# modifications: also: homodimer, disulfide between Cys of the two monomers
# B6: 408I-419 Y411W (peptide)
# peptide: IVRWTKKVPQVS
# B7: 408I-419 Y411F (peptide)
# peptide: IVRFTKKVPQVS
# B8: 408I-419 WC02 (peptide)
# peptide: IVRWTCKVPQVS
# B9: 408-417 (peptide)
# peptide: LVRYTKKVPQ
# B10: 408I-419 WSC01 (peptide)
# peptide: IVRWSKKVPQCS
# B11: 408I-419 R410K (peptide)
# peptide: IVKYTKKVPQVS
# B12: 408I-419 R410H (peptide)
# peptide: IVHYTKKVPQVS
# B13: 408I-419 WSC03 (peptide)
# peptide: IVRWSKKVCQVS
# B14: 408I-418 SC (peptide)
# peptide: IVRYSKKVPQC
# B15: 408I-419 WSC02 (peptide)
# peptide: IVRWSKKVPCVS
# B16: 408I-419 WC02 x2 (peptide)
# peptide: IVRWTCKVPQVS
# modifications: also: homodimer, disulfide between Cys of the two monomers
# B17: 407-419 (peptide)
# peptide: LLVRYTKKVPQVS
# B18: 408I-419 V418C (peptide)
# peptide: IVRYTKKVPQCS
# B19: 408-419 (peptide)
# peptide: LVRYTKKVPQVS
# B20: 408I-419 K414C x2 (peptide)
# peptide: IVRYTKCVPQVS
# modifications: also: homodimer, disulfide between Cys of the two monomers
# B21: 408I-419 T412S (peptide)
# peptide: IVRYSKKVPQVS
# B22: 408I-419 WC01_x2 (peptide)
# peptide: IVRWTKKVPQVC
# modifications: also: homodimer, disulfide between Cys of the two monomers
# B23: 408I-419 Y411S (peptide)
# peptide: IVRSTKKVPQVS
# B24: 408I-419 WSC02 x2 (peptide)
# peptide: IVRWSKKVPCVS
# modifications: also: homodimer, disulfide between Cys10 of two monomers
# B25: 408-421 (peptide)
# peptide: LVRYTKKVPQVSTP
# B26: 408-415-V409A (peptide)
# peptide: LARYTKKV
# B27: 408I-419 V418C x2 (peptide)
# peptide: IVRYTKKVPQCS
# modifications: also: homodimer, disulfide between Cys of the two monomers
# B28: 408-415-T412A (peptide)
# peptide: LVRYAKKV
# B29: 408I-419 WC03 (peptide)
# peptide: IVRWCKKVPQVS
# B30: 408I-419 WC03 x2 (peptide)
# peptide: IVRWCKKVPQVS
# modifications: also: homodimer, disulfide between Cys of the two monomers
# B31: 408-418 (peptide)
# peptide: LVRYTKKVPQV
# B32: 408I-419 WC01 (peptide)
# peptide: IVRWTKKVPQVC
# B33: 408I-419 WSC01 x2 (peptide)
# peptide: IVRWSKKVPQCS
# modifications: also: homodimer, disulfide between Cys of the two monomers
# B34: 408-420 (peptide)
# peptide: LVRYTKKVPQVST
# B35: 408I-419 (peptide)
# peptide: IVRYTKKVPQVS
# Target: T1, CXC chemokine receptor 4 (CXCR4) (human, UniProt P61073 1-352)
# Assay: cell-based or functional assay
# T1 sequence (P61073 whole entry): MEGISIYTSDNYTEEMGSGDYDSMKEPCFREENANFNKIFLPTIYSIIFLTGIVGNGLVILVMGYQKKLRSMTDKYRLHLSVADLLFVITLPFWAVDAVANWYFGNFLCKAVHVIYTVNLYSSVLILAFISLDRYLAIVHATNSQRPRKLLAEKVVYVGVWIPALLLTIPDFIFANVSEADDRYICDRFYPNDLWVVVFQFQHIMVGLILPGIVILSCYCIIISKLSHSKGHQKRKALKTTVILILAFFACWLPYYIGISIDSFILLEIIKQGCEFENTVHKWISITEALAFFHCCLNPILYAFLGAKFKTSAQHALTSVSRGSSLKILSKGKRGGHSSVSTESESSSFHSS
row,Binder,mean 50% inhibitory concentration (IC50) of infection by X4 HIV-1 strains [µg/mL]
1,B1,15.8

# Target: T1, CXC chemokine receptor 4 (CXCR4)
# Assay: cell-based or functional assay
# Remark: another data set of the same source
row,Binder,"IC50 (µM), blocking of X4 tropic HIV-1 NL4-3 infection [µM]"
1,B2,13.4
2,B3,5.87
3,B4,25.7
4,B5,0.39
5,B6,1.54
6,B7,3.89
7,B8,2.1
8,B9,19.8
9,B10,0.87
10,B11,> 100
11,B12,> 100
12,B13,1.51
13,B14,2.94
14,B15,0.31
15,B16,0.32
16,B17,11.1
17,B18,3.69
18,B19,5.49

row,Binder,"IC50 (µM), blocking of X4 tropic HIV-1 NL4-3 infection [µM]"
1,B20,1.05
2,B21,2.09
3,B22,0.4
4,B23,> 100
5,B24,0.12
6,B25,14
7,B26,32.9
8,B27,0.46
9,B28,11.2
10,B29,1.82
11,B30,0.6
12,B31,26.8
13,B32,1.65
14,B33,0.18
15,B34,15.3
16,B1,8.63
17,B35,2.48

# Target: T2, eGFP-CXCR4 (UniProt P61073 1-352)
# T2 construct: whole, on cells; not shown: EGFP part of the fusion
# Assay: competition with 100 nM CXCL12-TexasRed on cells expressing eGFP-CXCR4, real-time fluorescence
# Description: Experiments were performed using cells stably expressing eGFP-CXCR4, suspended in HEPES-bovine serum albumin buffer (10 mM HEPES, 137.5 mM NaCl, 1.25 mM MgCl₂, 1.25 mM CaCl₂, 6 mM KCl, 10 mM glucose, 0.4 mM NaH₂PO₄, 0.1% bovine serum albumin (w/v), pH 7.4) (typically at 10⁶ cells/mL). Time-based recordings of the fluorescence emitted at 510 nm (excitation at 470 nm) were performed at 21° C. using a spectrofluorimeter and sampled every 0.3 s. Fluorescence binding measurements were initiated by adding at 30 s 100 nM of CXCL12-TR to the 1 mL cell suspension. For competition experiments, EGFP-CXCR4 expressing cells were preincubated for 10 min in the absence or presence of various concentrations of unlabelled drugs. Then, CXCL12-TR (100 nM) was added and fluorescence was recorded until equilibrium was reached (300 s). Data were analyzed using Kaleidagraph 3.08 software (Synergy Software, Reading, Pa., USA).
# T2 sequence (P61073 whole entry, the tested form may be a part): as the sequence (P61073 whole entry) above
row,Binder,Ki [nM]
1,B1,3000
